From patent publication US11339213B2, “Methods and compositions for treatment of cancer” (MEREO BIOPHARMA 5, INC., priority 2015, dated 2022)

Key:
OMP-PN42 tumors = experiment: OMP-PN42 xenograft, gemcitabine plus nab-paclitaxel with complete DLL4/VEGF inhibition; type: in vivo, NOD-SCID mice
Experimental: FIG. 11 is a graph showing activity of anti-DLL4/VEGF bispecific in combination with gemcitabine plus nab-paclitaxel (ABRAXANE®). OMP-PN42 tumors were implanted in NOD-SCID mice. Tumor-bearing mice (n=10/group) were treated with control Ab, gemcitabine alone (30 mg/kg weekly), gemcitabine plus nab-paclitaxel, or the combination of anti-DLL4/VEGF (305B83, 21R30, B20) and gemcitabine plus nab-paclitaxel. Antibodies were dosed 10 mg/kg, weekly.
In patient-derived xenograft experiments, the stroma and vasculature is comprised of murine cells, whereas the tumor cells are human. Because DLL4 and VEGF are expressed in both tumor cells and in the stroma/vasculature, the previous experiments that were carried out with DLL4 and VEGF antagonists that block signaling of the human, but not murine, proteins and may have underestimated the full anti-tumor effect of blocking these pathways. To address this issue, the effect of simultaneous blockade of DLL4 and VEGF in both human tumor and murine stroma/vasculature cells in our xenograft studies were evaluated. This was done with experiments including surrogate antibodies—anti-mouse DLL4 (21R30) and anti-mouse VEGF (B20) in addition to 305B83 (which blocks human DLL4 and VEGF). Complete DLL4/VEGF inhibition in combination with gemcitabine plus nab-paclitaxel in OMP-PN42 tumors was tested.

[1] = test system: ovarian serous carcinoma tumor model OMP-OV19; experiment: Tumor recurrence after chemotherapy termination, OMP-OV19; type: in vivo, NOD.SCID mice; details: paclitaxel 15 mg/kg with or without antibody once a week for 4 weeks, chemotherapy maintenance 3-4 weeks, monitored up to 2 months after discontinuation
Experimental: FIGS. 7A and 7B are graphs showing delay in tumor recurrence by 305B83+21R30 and B20 following chemotherapy termination. Ovarian OMP-OV19 and pancreatic OMP-PN42-tumor bearing animals were randomized and treatment began when mean tumor volumes reached approximately 100-150 mm^3. NOD. SCID mice were treated with 15 mg/kg paclitaxel in OMP-OV19 and 10 mg/kg gemcitabine plus 30 mg/kg nab-pacltiaxel in OMP-PN42 with or without antibody once a week for 4 weeks, followed by a chemotherapy for 3-4 weeks. Thereafter, treatment was discontinued and tumor growth was monitored up to 2 months.
To determine the effect of simultaneous blockade of DLL4 and VEGF by the bi-specific antibody 305B83 plus 21R30 (anti-mDLL4) and B20 (anti-mVEGF) on tumor recurrence, an ovarian serous carcinoma tumor model OMP-OV19 and a pancreatic adenocarcinoma model OMP-PN42 were treated in combination with standard of care agents (paclitaxel in ovarian cancer and gemcitabine/nab-paclitaxel in pancreatic cancer) for four weeks followed by a chemotherapy maintenance phase for 3-4 weeks. Subsequently, tumor growth was monitored for up to two months following the discontinuation of treatment.

[2] = test system: OMP-PN8 pancreatic tumor cells; experiment: OMP-PN8 pancreatic xenograft, antibodies in combination with gemcitabine; type: in vivo, NOD-SCID mice; details: with gemcitabine 70 mg/kg weekly for four weeks, then antibody maintained, demcizumab, bevacizumab 15 mg/kg, bispecific 30 mg/kg
Experimental: FIG. 9 is a graph showing that DLL4/VEGF bispecific is active in combination with gemcitabine in pancreatic cancer. OMP-PN8 pancreatic tumor cells were injected into NOD-SCID mice. Tumors were allowed to grow for 24 days until they had reached an average tumor volume of 110 mm^3. […] After four weeks of combination treatment, the gemcitabine was discontinued and the antibody treatments were maintained. Gemcitabine was dosed at 70 mg/kg, weekly.
Following four weeks of treatment, the gemcitabine treatment was discontinued and the antibody treatments were maintained.

[3] = test system: OMP-PN8 pancreatic tumor cells; experiment: Serial transplantation study of tumor initiating cell frequency, OMP-PN8; type: in vivo; details: four weeks of treatment, 90 tumor cells into 10 new mice, 83 days without treatment
Experimental: FIG. 10 is a graph showing reduction of tumor-initiating cell frequency from anti-DLL4 activity. […] After four weeks of treatment, tumors were harvested, and the human tumor cells in the xenograft were purified. Ninety tumor cells from each treatment group were injected into new cohorts of 10 mice. Tumors were allowed to grow for 83 days without any further treatment. The volumes of the individual mice in the experiment are shown in the graph.
To determine the effect of DLL4 and VEGF inhibition on tumor initiating cell frequency in pancreatic cancer, serial transplantation studies were performed. […] Following four weeks of treatment, the tumors were harvested, and tumor cells from each treatment were implanted into a new set of mice. Tumors were then allowed to grow for 83 days without treatment. In the control group, nine out of ten mice grew large tumors (FIG. 10).

xenograft tumor models = details: Hoey et al., 2009; U.S. Pat. No. 7,750,124; cited from earlier work
[4] = test system: vasculature-related genes, Notch target genes; experiment: Vasculature density and stromal/vascular and Notch target gene expression in treated xenograft tumors; type: in vivo, mouse; details: human genes in tumors
Experimental: FIGS. 5A-5C are photomicrographs and graphs showing anti-VEGF inhibition of angiogenesis is dominant over anti-DLL4 hyperproliferation in animals receiving 305B83.
These experiments were carried out by including surrogate antibodies—anti-mouse DLL4 (21R30) and anti-mouse VEGF (B20).

OMP-C8 colon tumor cells = experiment: Human-mouse chimera skin graft model, luciferase-labeled OMP-C8 colon tumor growth; type: in vivo, NOD/SCID mice; details: OMP-C8 in human skin graft; 25 mg/kg intraperitoneally once a week; bioluminescence; compared to control antibody
Experimental: Neonatal foreskin graft of about 2 cm^2 was implanted into the lateral trunk of anesthetized NOD/SCID mice. Luciferase-labeled human OMP-C8 colon tumor cells were then injected intradermally into the human skin graft 6 weeks post implant. Treatment was initiated 2 weeks later. Tumor growth was monitored by measurement of bioluminescence with the IVIS-200 Imaging System (Caliper Life Sciences).
To evaluate the effect of the bispecific anti-DLL4/VEGF antibody on tumor growth in a microenvironment composed of human cells, the human-mouse chimera skin graft model, in which human tumor cells are implanted intradermally into the full thickness of human skin previously transplanted onto mice was used.

[5] = Phase 1a trial side effects; type: in vivo, human; details: patients receiving 305B83
Experimental: To manage this side effect, a treatment algorithm was developed. First, if the patient's blood pressure exceeds 140/90, the patient is instructed to phone the principal investigator. The initial goal is to normalize blood pressure in 48-72 hours. Treatment with antihypertensive is to be adjusted daily if the blood pressure is not less than 140/90.

Question: For `Nc1ccn([C@@H]2O[C@H](CO)[C@@H](O)C2(F)F)c(=O)n1` [gemcitabine, reference compound], which “tumor growth under chemotherapy” value (OMP-PN42 tumors; gemcitabine 30 mg/kg weekly, alone or plus nab-paclitaxel) is on record?
Answer: Its value is “minimal effect”.

Question: For `CC(=O)O[C@H]1C(=O)[C@@]2(C)[C@H]([C@H](OC(=O)c3ccccc3)[C@]3(O)C[C@H](OC(=O)[C@H](O)[C@@H](NC(=O)c4ccccc4)c4ccccc4)C(C)=C1C3(C)C)[C@]1(OC(C)=O)CO[C@@H]1C[C@@H]2O` [paclitaxel], which “tumor growth during and after chemotherapy” value [1] is on record?
Answer: The value was “grew continuously during the course of study”.

Question: With “bevacizumab: humanized anti-VEGF monoclonal antibody [reference compound]” as the molecule, how does the “tumor growth after gemcitabine withdrawal” value [2] read?
Answer: The value was “had no effect”.

B1: demcizumab: anti-DLL4 antibody, also known as OMP-21M18 or 21M18 (antibody, chains of the INN, looked up, V domains shown)
VH: QVQLVQSGAEVKKPGASVKISCKASGYSFTAYYIHWVKQAPGQGLEWIGYISSYNGATNYNQKFKGRVTFTTDTSTSTAYMELRSLRSDDTAVYYCARDYDYDVGMDYWGQGTLVTVSS
VL: DIVMTQSPDSLAVSLGERATISCRASESVDNYGISFMKWFQQKPGQPPKLLIYAASNQGSGVPDRFSGSGSGTDFTLTISSLQAEDVAVYYCQQSKEVPWTFGGGTKVEIK
Question: With B1 as the molecule, how does the “tumor growth after gemcitabine withdrawal” value [2] read?
Answer: Its value is “significantly delayed tumor growth”.

Question: And the “tumor growth frequency after serial transplantation” value [3]?
Answer: The value was “tumor growth frequency was reduced”.

Question: What about the “frequency of cancer stem cells” value (xenograft tumor models) of the same molecule?
Answer: The value was “reduce the frequency of cancer stem cells”.

Question: What about the tumor growth (xenograft tumor models) of the same molecule?
Answer: The tumor growth was “inhibit tumor growth”.

B2: 305B83: bispecific antibody 219R45-MB-21R83, anti-VEGF/anti-DLL4; blocks human DLL4 and VEGF (antibody, chains of the INN, looked up, V domains shown)
VH: QVQLVQSGAEVKKPGASVKISCKASGYSFTAYYIHWVKQAPGQGLEWIGYISNYNRATNYNQKFKGRVTFTTDTSTSTAYMELRSLRSDDTAVYYCARDYDYDVGMDYWGQGTLVTVSS
VL: DIVMTQSPDSLAVSLGERATISCRASESVDNYGISFMKWFQQKPGQPPKLLIYAASNQGSGVPDRFSGSGSGTDFTLTISSLQAEDVAVYYCQQSKEVPWTFGGGTKVEIK
VH2: QVQLVQSGAEVKKPGASVKVSCKASGYTFTNYWMHWVRQAPGQGLEWMGDINPSNGRTSYKEKFKRRVTLSVDKSSSTAYMELSSLRSEDTAVYFCTIHYDDKYYPLMDYWGQGTLVTVSS
VL2: DIVMTQSPDSLAVSLGERATISCRASESVDNYGISFMKWFQQKPGQPPKLLIYAASNQGSGVPDRFSGSGSGTDFTLTISSLQAEDVAVYYCQQSKEVPWTFGGGTKVEIK
Question: What does the source list for B2?
Answer: Notch target gene expression in tumors [4]: modulated Notch target gene expression in tumors similarly to anti-DLL4; inhibition of tumor growth (TGI) (OMP-C8 colon tumor cells): 87 % TGI; tumor growth, complete DLL4/VEGF inhibition with chemotherapy (OMP-PN42 tumors; 305B83 plus surrogates 21R30 and B20, 10 mg/kg weekly, with gemcitabine plus nab-paclitaxel): complete tumor regression; side effects observed [5]: development or exacerbation of hypertension in some patients
